Test results taken from PMC2116304 (The Journal of Cell Biology, 1990).
Where “and” joins values, the source holds several entries; their conditions need not be identical. Identical values can stand only once. One block for each molecule: values may come before it.

Columns and labels:
[1] = biological target: K3 proteolytic fragment of the invariant chain (18,000 D, lumenal) (human); assay: cross-linking
SEC = biological target: the molecule itself; assay: SEC
[2] = biological target: the molecule itself; assay: non-reducing SDS-PAGE without cross-linker
cross-linking = biological target: the molecule itself; assay: cross-linking

- stoichiometry N [1]: 3
Molecule: K3 proteolytic fragment of the invariant chain (18,000 D, lumenal) (domain or fragment)

B1: excess (class II-unassociated) invariant chain from Swei B-LCL (natural protein, human, UniProt P04233-2 1-232, looked up)
chain: MHRRRSRSCREDQKPVMDDQRDLISNNEQLPMLGRRPGAPESKCSRGALYTGFSILVTLLLAGQATTAYFLYQQQGRLDKLTVTSQNLQLENLRMKLPKPPKPVSKMRMATPLLMQALPMGALPQGPMQNATKYGNMTEDHVMHLLQNADPLKVYPPLKGSFPENLRHLKNTMETIDWKVFESWMHHWLLFEMSRHSLEQKPTDAPPKESLELEDPSSGLGVTKQDLGPVPM
modifications: [35S]methionine-labelled; N-linked glycans, endo H-sensitive
- stoichiometry N (SEC): 3

B2: invariant chain (from the class II-negative hybrid cell line 174xCEM.T2) (natural protein, human, UniProt P04233-2 1-232, looked up)
chain: B1 chain
modifications: N-linked glycans, endo H-sensitive; [35S]methionine-labelled in the affinity-purified samples
- stoichiometry N [2]: 2
- stoichiometry N (cross-linking): 3 and 4 and 6
